From patent publication US20110243926A1 (published 2011)

T1: soluble P-selectin (UniProt P16109 42-771, limits assumed)
T1 sequence (looked up): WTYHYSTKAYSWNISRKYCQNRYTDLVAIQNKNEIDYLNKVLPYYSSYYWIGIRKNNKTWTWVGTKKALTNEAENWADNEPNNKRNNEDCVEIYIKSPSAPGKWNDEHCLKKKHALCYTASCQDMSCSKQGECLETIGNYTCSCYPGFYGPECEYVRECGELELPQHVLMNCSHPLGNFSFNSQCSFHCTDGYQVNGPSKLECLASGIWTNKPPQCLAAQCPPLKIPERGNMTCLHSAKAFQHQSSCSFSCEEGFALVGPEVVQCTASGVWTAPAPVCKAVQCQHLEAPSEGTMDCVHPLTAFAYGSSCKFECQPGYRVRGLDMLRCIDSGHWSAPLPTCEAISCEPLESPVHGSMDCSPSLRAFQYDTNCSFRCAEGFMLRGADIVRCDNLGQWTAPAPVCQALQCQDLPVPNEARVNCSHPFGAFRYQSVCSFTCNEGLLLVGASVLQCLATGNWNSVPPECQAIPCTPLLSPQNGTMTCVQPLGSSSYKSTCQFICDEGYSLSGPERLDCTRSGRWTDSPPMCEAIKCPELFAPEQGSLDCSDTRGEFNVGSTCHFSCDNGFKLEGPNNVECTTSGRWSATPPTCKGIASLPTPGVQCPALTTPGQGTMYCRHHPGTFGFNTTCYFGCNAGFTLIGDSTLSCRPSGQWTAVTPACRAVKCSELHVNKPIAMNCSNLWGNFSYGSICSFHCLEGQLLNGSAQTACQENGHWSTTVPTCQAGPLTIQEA

T2: soluble E-selectin (control protein) (UniProt P16581 22-556, limits assumed)
T2 sequence (looked up): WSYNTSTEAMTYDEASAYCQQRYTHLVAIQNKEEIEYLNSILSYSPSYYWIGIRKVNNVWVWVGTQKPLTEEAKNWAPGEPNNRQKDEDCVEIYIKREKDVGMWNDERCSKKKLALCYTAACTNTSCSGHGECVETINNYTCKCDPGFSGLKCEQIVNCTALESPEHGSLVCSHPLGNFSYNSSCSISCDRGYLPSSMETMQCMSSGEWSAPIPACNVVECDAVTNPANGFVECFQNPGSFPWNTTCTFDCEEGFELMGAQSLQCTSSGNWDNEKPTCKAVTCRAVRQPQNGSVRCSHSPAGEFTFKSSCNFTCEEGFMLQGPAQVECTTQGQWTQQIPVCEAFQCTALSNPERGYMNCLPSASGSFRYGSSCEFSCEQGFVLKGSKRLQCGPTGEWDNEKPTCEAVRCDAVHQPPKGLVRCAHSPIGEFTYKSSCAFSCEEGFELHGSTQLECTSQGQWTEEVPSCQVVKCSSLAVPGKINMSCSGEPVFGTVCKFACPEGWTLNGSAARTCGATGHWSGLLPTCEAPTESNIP


Assays:
soluble P-selectin = target: T1, soluble P-selectin; assay: SPR (Biacore 3000, 25 C), soluble P-selectin coupled to CM-5 chip, antibody as analyte, bivalent analyte model
Experimental: (§1) All experiments were performed on a Biacore 3000, at 25° C., using 20 mM MOPS, pH 7.5, 150 mM NaCl, 1.5 mM CaCl₂ and 0.005% Tween-20 as running buffer. Low densities of soluble P-selectin or soluble E-selectin (control protein) were covalently coupled on two different surfaces of a CM-5 chip according to the manufacturer's instructions. The coating density was selected with the aim of achieving a maximum binding response of 100-200 RUs.
(§2) Solutions containing G1aggr and the G1 mouse parental monoclonal antibody were diluted and injected onto the CM-5 chip at a flow rate of 30 μl/min for 4 minutes, followed by 3 min to allow for dissociation, at which time the bound antibody was eluted with a 10 μl injection of 10 mM Acetate pH 4.5, 100 mM NaCl at a flow rate of 10 μl/min. A series of concentrations of both antibodies were injected over the soluble P-selectin and the soluble E-selectin surfaces until saturating binding was observed.
The data were analyzed using the Biaevaluation software v 4.1. Sensorgrams from the different cycles were overlaid and the data for all curves of one antibody were simultaneously fitted to a Bivalent analyte model (see FIG. 5). The equilibrium affinity was calculated from the on-rates and off-rates obtained from this analysis.

[1] = target: T2, soluble E-selectin (control protein); assay: SPR (Biacore 3000), soluble E-selectin coupled to CM-5 chip, antibody injected
Experimental: as §1, §2
There was no binding observed for either antibody to E-selectin.

Kd (soluble P-selectin)	binding result [1]	Binder
31.1 nM	no binding	humanized G1 antibody design labeled "aggressive" (G1aggr) (antibody, V domains shown, also called humanized G1aggr; humanized antibody G1aggr) VH: QVQLVQSGAEVKKPGASVKVSCKVSGYTFTSYDINWVRQAPGKGLEWMGWIYPGDGSIKYNEKFKGRVTMTVDKSTDTAYMELSSLRSEDTAVYYCARRGEYGNYEGAMDYWGQGTLVTVSS VL: DIQMTQSPSSLSASVGDRVTITCKASQSVDYDGHSYMNWYQQKPGKAPKLLIYAASNLESGVPSRFSGSGSGTDFTLTISSLQPEDFATYYCQQSDENPLTFGGGTKVEIK
24.4 nM	no binding	G1 mouse parental monoclonal antibody (antibody, V domains shown, Mouse monoclonal antibody from a hybridoma; also called murine mAb G1; parental G1 murine antibody) VH: QVQLQQSGPELVKPGALVKISCKASGYTFTSYDINWVKQRPGQGLEWIGWIYPGDGSIKYNEKFKGKATLTVDKSSSTAYMQVSSLTSENSAVYFCARRGEYGNYEGAMDYWGQGTTVTVSS VL: DIVLTQDPASLAVSLGQRATISCKASQSVDYDGHSYMNWYQQKPGQPPKLLIYAASNLESGIPARFSGSGSGTDFTLNIHPVEEEDAATYYCQQSDENPLTFGTGTKLELK
